Measured values from patent US20160272683A1 (Novo Nordisk, published 2016).
Numbered stars: 1 amine (or outer) side, 2 acyl side, 3 side chain; on linkers, the order of the positions; unused ones are H or OH. * marks the point of attachment. C20 diacid = O=C(O)CCCCCCCCCCCCCCCCCCC(=O)*; γGlu = O=C(O)[C@H](CCC(=O)[*:2])N[*:1]

Assays:
[1] = target: T1, human calcitonin receptor (human, UniProt P30988 25-474); assay: cell-based or functional assay
T1 sequence (looked up): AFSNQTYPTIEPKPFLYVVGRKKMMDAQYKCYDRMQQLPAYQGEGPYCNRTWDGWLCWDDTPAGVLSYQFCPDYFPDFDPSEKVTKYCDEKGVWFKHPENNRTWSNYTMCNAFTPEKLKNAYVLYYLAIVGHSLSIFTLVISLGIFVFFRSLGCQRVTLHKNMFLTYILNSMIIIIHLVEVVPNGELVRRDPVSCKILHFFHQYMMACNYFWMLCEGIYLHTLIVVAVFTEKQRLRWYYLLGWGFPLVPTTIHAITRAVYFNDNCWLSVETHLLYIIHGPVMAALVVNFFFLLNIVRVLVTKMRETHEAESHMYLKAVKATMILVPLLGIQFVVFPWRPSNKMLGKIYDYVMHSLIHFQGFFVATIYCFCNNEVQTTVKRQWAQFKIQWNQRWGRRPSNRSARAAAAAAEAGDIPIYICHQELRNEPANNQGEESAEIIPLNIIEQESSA

[2] = target: T2, human amylin 3(a) receptor (human calcitonin receptor co-expressed with RAMP-3) (human, UniProt P30988 25-474; O60896 24-148, limits assumed); assay: cell-based or functional assay
T2 sequence (looked up) 1: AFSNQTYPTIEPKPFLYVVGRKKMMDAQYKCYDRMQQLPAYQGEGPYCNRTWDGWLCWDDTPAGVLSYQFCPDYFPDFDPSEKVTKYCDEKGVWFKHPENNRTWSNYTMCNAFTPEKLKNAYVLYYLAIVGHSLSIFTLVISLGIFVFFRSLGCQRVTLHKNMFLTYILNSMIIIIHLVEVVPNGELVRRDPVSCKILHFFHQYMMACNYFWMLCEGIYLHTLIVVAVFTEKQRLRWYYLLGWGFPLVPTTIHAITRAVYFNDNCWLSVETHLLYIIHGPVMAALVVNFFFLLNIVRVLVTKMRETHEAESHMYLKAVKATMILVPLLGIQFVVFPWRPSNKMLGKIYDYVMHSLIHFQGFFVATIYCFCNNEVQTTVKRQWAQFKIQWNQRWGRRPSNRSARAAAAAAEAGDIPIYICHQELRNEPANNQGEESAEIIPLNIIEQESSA
T2 sequence (looked up) 2: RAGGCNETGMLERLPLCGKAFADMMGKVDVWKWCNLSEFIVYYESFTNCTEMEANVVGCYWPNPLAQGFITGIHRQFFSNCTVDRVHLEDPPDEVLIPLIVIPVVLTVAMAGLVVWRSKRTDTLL

Row | hCTR funct. EC50 (pM) [1] | hAmylin-R funct. EC50 (pM) [2] | Binder
1 | 40 pM | 52 pM | {C20 diacid-γGlu}-ASGLSTLVLGRLSQELHELQTYPRTETGSQTY-NH2 (SMILES CC(C)C[C@H](NC(=O)CNC(=O)[C@H](CO)NC(=O)[C@H](C)NC(=O)CC[C@H](NC(=O)CCCCCCCCCCCCCCCCCCC(=O)O)C(=O)O)C(=O)N[C@@H](CO)C(=O)N[C@H](C(=O)N[C@@H](CC(C)C)C(=O)N[C@H](C(=O)N[C@@H](CC(C)C)C(=O)NCC(=O)N[C@@H](CCCNC(=N)N)C(=O)N[C@@H](CC(C)C)C(=O)N[C@@H](CO)C(=O)N[C@@H](CCC(N)=O)C(=O)N[C@@H](CCC(=O)O)C(=O)N[C@@H](CC(C)C)C(=O)N[C@@H](Cc1c[nH]cn1)C(=O)N[C@@H](CCC(=O)O)C(=O)N[C@@H](CC(C)C)C(=O)N[C@@H](CCC(N)=O)C(=O)N[C@H](C(=O)N[C@@H](Cc1ccc(O)cc1)C(=O)N1CCC[C@H]1C(=O)N[C@@H](CCCNC(=N)N)C(=O)N[C@H](C(=O)N[C@@H](CCC(=O)O)C(=O)N[C@H](C(=O)NCC(=O)N[C@@H](CO)C(=O)N[C@@H](CCC(N)=O)C(=O)N[C@H](C(=O)N[C@@H](Cc1ccc(O)cc1)C(N)=O)[C@@H](C)O)[C@@H](C)O)[C@@H](C)O)[C@@H](C)O)C(C)C)[C@@H](C)O) [[N-terminal(C20 diacid-gGlu), des1, 4G, 8L, 9V, 15Q, 21Q, 23Y, 30S, 31Q, 32T, 33Y]mimylin]
2 | 34 pM | 40 pM | {C20 diacid-γGlu}-ASGLSTATLGRLSQELHELQTYPRTETGSGTY-NH2 [[N-terminal(C20 diacid-gGlu), des1, 4G, 9T, 15Q, 21Q, 23Y, 30S, 31G, 32T, 33Y]mimylin]
3 | 57 pM | 70 pM | {C20 diacid-γGlu}-ASGLSTAVLGRLSQELHELQTYPPTETGSQTY-NH2 (SMILES CC(C)C[C@H](NC(=O)CNC(=O)[C@H](CO)NC(=O)[C@H](C)NC(=O)CC[C@H](NC(=O)CCCCCCCCCCCCCCCCCCC(=O)O)C(=O)O)C(=O)N[C@@H](CO)C(=O)N[C@H](C(=O)N[C@@H](C)C(=O)N[C@H](C(=O)N[C@@H](CC(C)C)C(=O)NCC(=O)N[C@@H](CCCNC(=N)N)C(=O)N[C@@H](CC(C)C)C(=O)N[C@@H](CO)C(=O)N[C@@H](CCC(N)=O)C(=O)N[C@@H](CCC(=O)O)C(=O)N[C@@H](CC(C)C)C(=O)N[C@@H](Cc1c[nH]cn1)C(=O)N[C@@H](CCC(=O)O)C(=O)N[C@@H](CC(C)C)C(=O)N[C@@H](CCC(N)=O)C(=O)N[C@H](C(=O)N[C@@H](Cc1ccc(O)cc1)C(=O)N1CCC[C@H]1C(=O)N1CCC[C@H]1C(=O)N[C@H](C(=O)N[C@@H](CCC(=O)O)C(=O)N[C@H](C(=O)NCC(=O)N[C@@H](CO)C(=O)N[C@@H](CCC(N)=O)C(=O)N[C@H](C(=O)N[C@@H](Cc1ccc(O)cc1)C(N)=O)[C@@H](C)O)[C@@H](C)O)[C@@H](C)O)[C@@H](C)O)C(C)C)[C@@H](C)O) [[N-terminal(C20 diacid-gGlu), des1, 4G, 9V, 15Q, 21Q, 23Y, 25P, 30S, 31Q, 32T, 33Y]mimylin]
4 | 52 pM | 53 pM | {C20 diacid-γGlu}-ASGLSTAVLGRLSQELHELQTYPRTETGSATY-NH2 (SMILES CC(C)C[C@H](NC(=O)CNC(=O)[C@H](CO)NC(=O)[C@H](C)NC(=O)CC[C@H](NC(=O)CCCCCCCCCCCCCCCCCCC(=O)O)C(=O)O)C(=O)N[C@@H](CO)C(=O)N[C@H](C(=O)N[C@@H](C)C(=O)N[C@H](C(=O)N[C@@H](CC(C)C)C(=O)NCC(=O)N[C@@H](CCCNC(=N)N)C(=O)N[C@@H](CC(C)C)C(=O)N[C@@H](CO)C(=O)N[C@@H](CCC(N)=O)C(=O)N[C@@H](CCC(=O)O)C(=O)N[C@@H](CC(C)C)C(=O)N[C@@H](Cc1c[nH]cn1)C(=O)N[C@@H](CCC(=O)O)C(=O)N[C@@H](CC(C)C)C(=O)N[C@@H](CCC(N)=O)C(=O)N[C@H](C(=O)N[C@@H](Cc1ccc(O)cc1)C(=O)N1CCC[C@H]1C(=O)N[C@@H](CCCNC(=N)N)C(=O)N[C@H](C(=O)N[C@@H](CCC(=O)O)C(=O)N[C@H](C(=O)NCC(=O)N[C@@H](CO)C(=O)N[C@@H](C)C(=O)N[C@H](C(=O)N[C@@H](Cc1ccc(O)cc1)C(N)=O)[C@@H](C)O)[C@@H](C)O)[C@@H](C)O)[C@@H](C)O)C(C)C)[C@@H](C)O) [[N-terminal(C20 diacid-gGlu), des1, 4G, 9V, 15Q, 21Q, 23Y, 30S, 31A, 32T, 33Y]mimylin]
